Laboratory results reported in the domain aggregation screens of Martell et al. (2025).
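Also: 20 min heating vs room temperature control held 20 min.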

Assay: soluble fraction after stress (log2 fold change); higher = more stays soluble; pooled small domains, quantitative proteomics
Details: stress: 75 degC
In the case of “HMHDRRSGKVKWYSDRKGYGFIDLDGGEVFIHRSALIAFGALRLQAEDIITITVRETDRGLVVDQLFGIER”, the “soluble fraction (log2)” value is reported as -1.66. For “HMHEAILNQIRNEELMLYIGELSDAQQDVILLKYFHQMTFKEIAESFSIPISTVKTRHTAALKKLSTLWK”, the “soluble fraction (log2)” value was -0.36. For “HMHESLAEVAARKLRALIVTGELAPGERVTEAGLTDLLEISRTPAREAIRILSSEGLLVVFPNRGAEVV”, the “soluble fraction (log2)” value was -0.94. With “HMHEYSDIEHRILDAAREVFIRKGYDSATMGDIALLAGMSRTSVNYYFRNKERLFEAIFEEII” the “soluble fraction (log2)” value was -1.91. For “HMHFDQILAHAMDERGMNAVQLASLTGLSSGAISRYLAGDRQPTVYSIQQIAKALGVSADYLVG”, the “soluble fraction (log2)” value was -1.19. In the case of “HMHGEAEFLDATAVVMEKLNPGGLVKIKGEIWQAVSKDGHTIQEGEKVRVFERQGITLLVGHF”, the “soluble fraction (log2)” value is reported as -0.876. With “HMHGTIHSAAYGGDIEAVKKFLAAGADVNANGGGRTPLDLAIQVKNTEIADLLRKHGGKTGDELKA” the “soluble fraction (log2)” value was 0.547. In the case of “HMHGYLSDPAARLIRARRKTLSIRITQEGNLEIRAPLGMPKGEIEAFLKEKAQWIETHRAKVLAEYA”, the “soluble fraction (log2)” value is reported as -2.84. In the case of “HMHHDQQQITAELARIARNGLPGLTADNAIISRLDALNLLINIHDDRGADATPLRGLLPAIADELLRLT”, the “soluble fraction (log2)” value is reported as 0.056. For “HMHHIDTAWFRGKMREHRLTQEAVGQAIGLERSMVSKIIKGTVSFNARKASAWAQLLRVSESEILERVGI”, the “soluble fraction (log2)” value was -2.58. For “HMHHIDYKQLRRINPVAARRAVLDYLESTGGNITKTAQVFSINRSVVYDILKKQASGDLSDRLRIP”, the “soluble fraction (log2)” value was -2.04. With “HMHIDQVIRERRLALGLTQEELANKIGVSAPAVSKWEKRVSYPDITLLPALARILGTDVNTLLTFS” the “soluble fraction (log2)” value was -1.08. For “HMHIVQEGDSLYGIARQYRITVEELRSLNALETADVIVPYQKLYV”, the “soluble fraction (log2)” value was -0.851. For “HMHKPLRILVYEELRMLIMTGQIKPGTRMMEIDLAESMGVSRTPVREAIRQLEKDNLVTIEPRRGAYVSD”, the “soluble fraction (log2)” value was -2.71. For “HMHKYQVGETVYYTSPTFGRAAATGSYIVVKLLPSEGDDYQYRIKSSGEAFERVAKESQLDR”, the “soluble fraction (log2)” value was -0.57. For “HMHLIPRESTYEIDGRRFVVDSVNLDFGKVSLQDITFRNATGFPIFRSESIEFMRRLVEISEAQRIAEL”, the “soluble fraction (log2)” value was -0.0447. In the case of “HMHLPDNAVSIISELKMTPEEVLELIGKLPHDFLFLPYSQRKKIIVDLIPNKDYKLLMSLIKKFML”, the “soluble fraction (log2)” value is reported as -1.62. For “HMHLTRYQYKVETEQEAVGLKELSSVHDLQIKENEATFQADSDAIDEILKTLLLYGVKKLEATPPTLED”, the “soluble fraction (log2)” value was -0.211. For “HMHMSLTEKYKELTDLAVSAGVQNLNVREQDGVLYVDGDASGAVKQQLWDTYGKLDPDYTSGDLVLNI”, the “soluble fraction (log2)” value was 0.279. In the case of “HMHNSPSPVATTILRFLQPVRAFVGDTEDMRTFGPFLREDVAMVPASQAKNLIRSGHAVEINP”, the “soluble fraction (log2)” value is reported as -0.0107. With “HMHNSQTIIDNIKRIANEQNISLSKLAVISGLGKNTITSMTAKTNIKIETLTAIAKSLNVSIHDLTGE” the “soluble fraction (log2)” value was -2.64. For “HMHPDHRTATVPDAAAGRRFDAVLAELFPQFSRSKLTTWIKSGEVLLNGEVPRPRDAVVGGETVSLNVVL”, the “soluble fraction (log2)” value was -0.554. In the case of “HMHPMVEAYLADLDRALSGSDPREHAETMSAVREHLADAIAPDATAEQVRHALDELGPVEAIAAG”, the “soluble fraction (log2)” value is reported as 0.0321. With “HMHPQISVEGVLPLKEAVEFVEREIISHAYSRYRATREVARHLGIDPSTVLRKAAKYGITVEPGKN” the “soluble fraction (log2)” value was -1.07. With “HMHPRDREENKYLLLRGERIYEESIGEKRLYVEAALHKYEKALSSYDTGLIDEAKEEFKKFLEEIEEA” the “soluble fraction (log2)” value was -0.271. In the case of “HMHPVEPDDPDQHILFQHLRGQDQVHIDALIRLSGWTADKVSSTLLFMELQGLVKQLPGMYYALE”, the “soluble fraction (log2)” value is reported as -0.806. With “HMHQAADFAGFITFNKDGVEQFSFGKYKNQTVVSVLEKDPGYYSWIQNADFPLYTKKILTAIRLAM” the “soluble fraction (log2)” value was -1.06. With “HMHQALLEQSAEHAQQVKAYELLLTAERALDEENTEAFLSAMKSLKPLAENLDAKGKALYQELLPFVTEA” the “soluble fraction (log2)” value was 0.485. With “HMHQAVTVTKPARLFTGPDGKGVVRSLDVGMMLYPTGEKQGMMWEVEDELGNKGWVSSTLLELS” the “soluble fraction (log2)” value was 0.0637. In the case of “HMHSEEAALLHRYIDSLEEPQHTVVVMRDIGGYSFEEIASVVQLKEAHIWMILSRARRKLRELYIKTMDHH”, the “soluble fraction (log2)” value is reported as 0.0533. With “HMHSFFGDNIKKLRTAKKMSQEQLADIFGITKAGISYWETGRSEPNFATVQKLADFFGVTTSDLLGEA” the “soluble fraction (log2)” value was -0.43. In the case of “HMHSFGLHVRNLRKKSNLTLSQLSNASGLSLSAISKIENNQISPSFINLIRLAEGLKMHIADLVTVK”, the “soluble fraction (log2)” value is reported as -2.2. In the case of “HMHSGFHSAILDVDRAVKEGKTLYEALNKYPYIFDETFRSLVRAGEASGELPSILSKLALYLEEQSK”, the “soluble fraction (log2)” value is reported as -2.04. In the case of “HMHSLLDDIPNVGEKRKRILLTHFQSLEEIKAATVEELERLPQINRKAAESIYTFFHSQPIR”, the “soluble fraction (log2)” value is reported as -0.735. With “HMHSRLEDIPGIGPRRRAMLLRHFGGLAELKAAGVEEIARVEGINMALAQRLWRALHGVPDPT” the “soluble fraction (log2)” value was -0.641. In the case of “HMHSVIALTIPADYAGLRLDQALAKLLPNWSRSRLQTWIAENRVILDGQITTIKQKVWGNELIQISPQD”, the “soluble fraction (log2)” value is reported as -1.67. With “HMHTDQVLVMTRAVGQGEIVRNTDVGLTSVAVDRAVTTIPASQLDEIVGRHALVDLSAGQLLGSHSVGA” the “soluble fraction (log2)” value was 0.109. In the case of “HMHTNNALWAIADDMRARKDDGEFDTYREGYKWAANNIVKEGIHITAIKLEKAYHKAKSEGKV”, the “soluble fraction (log2)” value is reported as -0.139. For “HMHVSIAENIRRIRTQHDMTQEEFGKVAAVSAMAVSQWENGRAVPRMGAVQRIADYFNISKGEVID”, the “soluble fraction (log2)” value was -0.699. With “HMHWDIAQADAKQEVMDSSDDKEAIERIQANMFKDPKDHDQEYANKILNDMIDEIKEKGLEAMQHKFAQE” the “soluble fraction (log2)” value was -0.443. In the case of “HMHYELTPDAEKQLSALGLTAELVERILEEANDRRPIPGTNRTVYSLHGYSVEFSNTNHKIVSVRKG”, the “soluble fraction (log2)” value is reported as -0.882. For “HMIAAPFVVKDIRVDGVQPATGEAIISSLPVKVGQTATDADVSNVVRQLFSLNRFQNVQATREGNTLVIKV”, the “soluble fraction (log2)” value was -0.0493. In the case of “HMIAGHLQIKNDYYYMVLSYTDSDGKRKQPWIPTGLPMKGNKKRAEKMLIETRQTYVPPVSSG”, the “soluble fraction (log2)” value is reported as -3.41. With “HMIAIGDDARLDDAARFFRIAEDSYAAGDYRKSKENYIEARKLYAELGDHEKVNLINSKISAIDSIT” the “soluble fraction (log2)” value was 0.0977. In the case of “HMIAVIKPSATAEQKAGLVDWIRGQGIDVHISEGHDYTVLGLIGDTSKIDMDLIASLDIVDSVKRVA”, the “soluble fraction (log2)” value is reported as -0.338. With “HMIDAHTTLLAKRLESKGFLALTDKSSAEEIYEEFGISKKAFKKALGALYKERLVRIGEDGVVWM” the “soluble fraction (log2)” value was -1.67. In the case of “HMIDDPTAVILRLVSEKQVIRRDDVVKALSVTPQKAYRLLKTMTTGGLLTRSGARRTTVYGLPDARER”, the “soluble fraction (log2)” value is reported as 0.223. With “HMIDEKVQAADKSIEIGNLSPLKGLVTDDEMHELEKLFEKVMALKDFEVNDVGAGRKYIEAYVSFFKFAEG” the “soluble fraction (log2)” value was -0.418. For “HMIDELNVGDIRFYLNRYGKEIQIEIIRIGDDGSVYARTMADNALFRVPEARLKNIGEKVPAEEVQRG”, the “soluble fraction (log2)” value was -1.42. With “HMIDFTHEDIERLWNAIVHYVPERQKSDMAIDFIKSLEDIGVEHDEIKASAEYDPKLEEAINTVY” the “soluble fraction (log2)” value was -0.424. With “HMIDIDNLEKAAILLLSMGTEAAAKVMQKLSRDEVQRLISKMASLSGVSSIEAKWTLQQFFNQYREQSG” the “soluble fraction (log2)” value was -0.786. For “HMIDLSELINKTGSAYTNLRPSGTAVIGDDRVDVVTEGTFVEKDRPVKVVAVEGQRVVVREVE”, the “soluble fraction (log2)” value was 0.209. For “HMIDMQIDTARFGTLGVDDDKIITFPKGLPGFEDERRFFLMDHSGSSKIKWLHSADNPGLALV”, the “soluble fraction (log2)” value was -0.0491. In the case of “HMIDVGSKIRSLRKSKNISISTLAKNSDLSTGLISQIERNMVVPSIVAMWKISKALDINIGYFFE”, the “soluble fraction (log2)” value is reported as -3.13. With “HMIEDMQQYIKEIRQMVSGRLDMTRNLEDEEIRDTIAELVAEESRKQYMTLTEKREVIEGVFNSMR” the “soluble fraction (log2)” value was -0.0831. With “HMIEEIAVPEILGMQEEEAKAKIEGLGLVFNVTDRVKSNEYEKGEVMYQSVGPDDTTVKSGYPINVTISEG” the “soluble fraction (log2)” value was 0.196. With “HMIEEIPYSQFMSMLEEGKIDKAEIYQDSIIFSTKPDEQGKAGYYSIAYMKDNVLADRLYDAGVEFTPII” the “soluble fraction (log2)” value was 0.293. In the case of “HMIEGEQVRLLRLLERQEGGMLPLGDKSPASDILLLTGMSKKTFKMAVGALYKAQMITMTPTSIKLVK”, the “soluble fraction (log2)” value is reported as -3.18. With “HMIEGETPEQTMERVSKDPEIVQILQDPVMQGILAQARENPAALQDHMKNPEVYKKINMLIAAGVIRT” the “soluble fraction (log2)” value was 0.278. In the case of “HMIEGSSDWKPNMILDDGGDLTKIIHEEYQDLLDDIRGLSEETTTGVLRLYEMEKENSLAVPAINVND”, the “soluble fraction (log2)” value is reported as 0.171. For “HMIEKGSDALEKELRKNNLSINEFLTNKNIDIILDELKLKDIDDLYVNIALGKYTPNQIIKIVNK”, the “soluble fraction (log2)” value was -0.0502. For “HMIELEGVISSVLAGTMFKVKLRGNGHEVLAHISGKMRKKFIRLVIGDAVKIEMSPYDMDKARIVYRI”, the “soluble fraction (log2)” value was -0.318. With “HMIELTTDYKKRVVEALVSARENYSGSDSDFARKWSIDKTVYSRLKKGYQEGLLSVGKYIELGMELNVSSR” the “soluble fraction (log2)” value was -1.87. For “HMIENITIELNKKALALDFELNKDLPEGVLETIPTLVSLMVRFDPLTVSYHFLRDYIDALLESNLNVDL”, the “soluble fraction (log2)” value was -0.0886. With “HMIENMQEYVRHIRAAVSDRLDLTREVEDDEIREVISQIVAEESRQNYLSLGERQTVIETVFNSMR” the “soluble fraction (log2)” value was -0.339. With “HMIERLVEFVHTLRHSGVRVSMAEAMDAAEALRHTPITERQIFKTALQSVLVKEHQDIPAFDAAFERFFL” the “soluble fraction (log2)” value was -3.04. In the case of “HMIESLKGILHKKDPTIAIIDVGGVRLSVNITLSTYEKLEEINSSIELLTYFNVREDAMELYG”, the “soluble fraction (log2)” value is reported as -0.468. For “HMIETIIGAEGKVLETIDNFNQKGVVALAGKEWTARSADASIIPEGAKVSVVEISGVKLIVTQN”, the “soluble fraction (log2)” value was 0.251. With “HMIETLGDATFKRLKAMILDGTLEPGTRLSEKKFADHLGVSRTPVREAIGQLVSEGLAKRSAGSAPVVSS” the “soluble fraction (log2)” value was -0.0859. In the case of “HMIFSIIPGQIRLTKMEIADGYLVLYGFTPSKEIYNLHLNPALKSIFTSSETSFIPVSGGLKFMSTNKL”, the “soluble fraction (log2)” value is reported as -2.35.
